Laboratory results: US20240034757A1 (OXFORD UNIVERSITY INNOVATION, published 2024)
Like-named read-outs stand apart in the source and are kept apart here.

T1: CXCL6_HUMAN (human, UniProt P80162 38-114)
T1 sequence: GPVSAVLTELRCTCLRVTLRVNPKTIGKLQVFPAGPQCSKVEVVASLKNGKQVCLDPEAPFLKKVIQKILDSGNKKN

T2: CXCL2_HUMAN (human, UniProt P19875 35-107)
T2 sequence: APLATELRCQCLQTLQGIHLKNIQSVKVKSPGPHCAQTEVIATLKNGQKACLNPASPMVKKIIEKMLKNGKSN

T3: CXCL10_HUMAN (human, UniProt P02778 22-98)
T3 sequence: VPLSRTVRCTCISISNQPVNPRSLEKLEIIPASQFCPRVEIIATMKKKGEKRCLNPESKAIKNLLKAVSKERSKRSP

T4: CXCL8_HUMAN (human, UniProt P10145 28-99)
T4 sequence: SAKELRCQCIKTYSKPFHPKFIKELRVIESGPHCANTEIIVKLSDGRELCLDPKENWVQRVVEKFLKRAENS

T5: CXCL13_HUMAN (human, UniProt O43927 23-109)
T5 sequence: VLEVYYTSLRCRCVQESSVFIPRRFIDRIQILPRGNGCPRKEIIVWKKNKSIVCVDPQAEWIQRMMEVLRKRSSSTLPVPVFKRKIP

T6: CXCL3_HUMAN (human, UniProt P19876 35-107)
T6 sequence: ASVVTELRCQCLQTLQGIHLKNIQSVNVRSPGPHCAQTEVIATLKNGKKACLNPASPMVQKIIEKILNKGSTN

T7: CXCL4_HUMAN (human, UniProt P02776 32-101)
T7 sequence: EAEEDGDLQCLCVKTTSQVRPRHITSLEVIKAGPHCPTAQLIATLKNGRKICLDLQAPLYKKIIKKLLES

T8: CXCL9_HUMAN (human, UniProt Q07325 23-125)
T8 sequence: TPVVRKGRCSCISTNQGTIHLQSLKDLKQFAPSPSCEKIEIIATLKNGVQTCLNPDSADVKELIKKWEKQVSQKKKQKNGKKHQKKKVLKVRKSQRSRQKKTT

T9: CXCL5_HUMAN (human, UniProt P42830 41-114)
T9 sequence: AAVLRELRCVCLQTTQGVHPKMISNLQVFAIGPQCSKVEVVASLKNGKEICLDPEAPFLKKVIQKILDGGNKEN

T10: CXCL14_HUMAN (human, UniProt O95715 35-111)
T10 sequence: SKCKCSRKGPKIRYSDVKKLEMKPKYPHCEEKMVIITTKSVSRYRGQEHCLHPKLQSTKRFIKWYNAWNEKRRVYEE

T11: CXCL11_HUMAN (human, UniProt O14625 22-94)
T11 sequence: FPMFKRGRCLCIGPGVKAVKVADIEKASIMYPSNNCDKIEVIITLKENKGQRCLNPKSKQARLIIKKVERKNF

T12: CXCL7_HUMAN (human, UniProt P02775 59-128)
T12 sequence: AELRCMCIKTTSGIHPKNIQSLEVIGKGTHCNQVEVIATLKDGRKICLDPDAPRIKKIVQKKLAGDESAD

T13: CXCL1_HUMAN (human, UniProt P09341 35-107)
T13 sequence: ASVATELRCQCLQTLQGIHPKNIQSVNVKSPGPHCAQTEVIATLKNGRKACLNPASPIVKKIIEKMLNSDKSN

T14: CCL14_HUMAN (human, UniProt Q16627 22-93)
T14 sequence: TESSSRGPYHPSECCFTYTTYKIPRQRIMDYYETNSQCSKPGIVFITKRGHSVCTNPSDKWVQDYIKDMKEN

T15: CCL15_HUMAN (human, UniProt Q16663 22-113)
T15 sequence: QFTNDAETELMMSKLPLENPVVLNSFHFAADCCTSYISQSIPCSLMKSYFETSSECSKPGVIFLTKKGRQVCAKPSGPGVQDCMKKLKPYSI

T16: CCL1_HUMAN (human, UniProt P22362 24-96)
T16 sequence: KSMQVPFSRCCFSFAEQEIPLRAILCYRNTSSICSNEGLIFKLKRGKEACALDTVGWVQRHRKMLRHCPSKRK

T17: CCL4L1_HUMAN (human, UniProt Q8NHW4 24-92)
T17 sequence: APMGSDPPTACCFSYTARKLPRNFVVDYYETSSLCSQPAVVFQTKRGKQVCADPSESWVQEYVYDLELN

T18: CCL3_HUMAN (human, UniProt P10147 24-92)
T18 sequence: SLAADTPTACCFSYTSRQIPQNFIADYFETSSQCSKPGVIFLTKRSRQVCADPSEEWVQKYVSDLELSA

T19: CCL27_HUMAN (human, UniProt Q9Y4X3 25-112)
T19 sequence: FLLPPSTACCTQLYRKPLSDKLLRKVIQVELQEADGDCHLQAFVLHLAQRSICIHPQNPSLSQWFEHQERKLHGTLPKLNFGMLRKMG


What was measured:
Test in all cases: BLI
CXCL6_HUMAN = target: T1, CXCL6_HUMAN
CXCL2_HUMAN = target: T2, CXCL2_HUMAN
CXCL10_HUMAN = target: T3, CXCL10_HUMAN
CXCL8_HUMAN = target: T4, CXCL8_HUMAN
CXCL13_HUMAN = target: T5, CXCL13_HUMAN
CXCL3_HUMAN = target: T6, CXCL3_HUMAN
CXCL4_HUMAN = target: T7, CXCL4_HUMAN
CXCL9_HUMAN = target: T8, CXCL9_HUMAN
CXCL5_HUMAN = target: T9, CXCL5_HUMAN
CXCL14_HUMAN = target: T10, CXCL14_HUMAN
CXCL11_HUMAN = target: T11, CXCL11_HUMAN
CXCL12_HUMAN = CXCL12_HUMAN (human, UniProt P48061 22-89)
CXCL7_HUMAN = target: T12, CXCL7_HUMAN
CXCL1_HUMAN = target: T13, CXCL1_HUMAN
CCL14_HUMAN = target: T14, CCL14_HUMAN
CCL15_HUMAN [1] = target: T15, CCL15_HUMAN
CCL1_HUMAN = target: T16, CCL1_HUMAN
CCL4L1_HUMAN = target: T17, CCL4L1_HUMAN
CCL3_HUMAN = target: T18, CCL3_HUMAN
CCL27_HUMAN = target: T19, CCL27_HUMAN
CCL15_HUMAN [2] = target: T15, CCL15_HUMAN; remark: listed apart in the source

Sequence of CXCL12_HUMAN (P48061 22-89 limits assumed): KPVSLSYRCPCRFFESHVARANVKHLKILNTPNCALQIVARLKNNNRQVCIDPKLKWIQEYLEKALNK

Binder	binding result (CXCL6_HUMAN)	RT (CXCL2_HUMAN)	binding result (CXCL10_HUMAN)	Kd (CXCL8_HUMAN)	RT (CXCL8_HUMAN)	binding result (CXCL13_HUMAN)	Kd (CXCL3_HUMAN)	RT (CXCL3_HUMAN)	binding result (CXCL4_HUMAN)	binding result (CXCL9_HUMAN)	RT (CXCL5_HUMAN)	binding result (CXCL14_HUMAN)	binding result (CXCL11_HUMAN)	binding result (CXCL12_HUMAN)	binding result (CXCL7_HUMAN)	Kd (CXCL1_HUMAN)	RT (CXCL1_HUMAN)	Kd (CCL14_HUMAN)	RT (CCL14_HUMAN)	Kd (CCL15_HUMAN [1])	other results
P991:G4S:P1156 (designed binder) ENGEGTTQPDYDNSTDYYNYEDFKCTCPAPHLNNTNGTVMKPIGCYYTCNVTRCTAPDTYPCYNLTEHQAKNLTTSPTTLCAVGNCDHGICVPNGTKELCFKAPNLEEGGGGSADDDNELFTVQYCGMNCTKDEGGTWTGCTGKKEGCKCYHESGKNYGLCLSTEYTDFSQYGNPSDSEIEAAKPKRSDTLSH	no binding	2.32 min	no binding	3.56 nM	36.8 min	no binding	89.9 nM	3.28 min	no binding	no binding	2.32 min	no binding	no binding	no binding	no binding	5.08 nM	21 min	0.835 nM	135 min	127 nM	RT (CCL15_HUMAN [1]): 0.87 min
P1156:G4S:P991 (designed binder, also called two-warhead evasin) ADDDNELFTVQYCGMNCTKDEGGTWTGCTGKKEGCKCYHESGKNYGLCLSTEYTDFSQYGNPSDSEIEAAKPKRSDTLSHGGGGSENGEGTTQPDYDNSTDYYNYEDFKCTCPAPHLNNTNGTVMKPIGCYYTCNVTRCTAPDTYPCYNLTEHQAKNLTTSPTTLCAVGNCDHGICVPNGTKELCFKAPNLEE	no binding	2.89 min	no binding	1.5 nM	71.3 min	no binding	61.4 nM	3.61 min	no binding	no binding	3.08 min	no binding	no binding	no binding	no binding	2.72 nM	30.3 min	0.664 nM	159 min	166 nM	RT (CCL15_HUMAN [1]): 0.66 min
P1243:G4S:P1156 (designed binder) RNHTEDNSTEYYDYEEARCACPARHLNNTNGTVLKLLGCHYFCNGTLCTAPDGYPCYNLTAQQVRTLTTYPNTSCAVGVCMKGTCVKNGTMEQCFKTPGGGGSADDDNELFTVQYCGMNCTKDEGGTWTGCTGKKEGCKCYHESGKNYGLCLSTEYTDFSQYGNPSDSEIEAAKPKRSDTLSH																					binding result (CCL1_HUMAN): no binding (tested: 300 nM); binding result (CCL4L1_HUMAN): no binding (tested: 300 nM); Kd (CCL3_HUMAN): 16.4 nM; Kd (CCL27_HUMAN): 24.4 nM; Kd (CCL15_HUMAN [2]): 8.71 nM
